Test results as given in paper PMC6385209.

Assay: mouse vaccination, whole-cell ELISA for CPS14-specific IgG
Conditions: glycan gained; control: unglycosylated ComP

## ComP: CPS14-ComP bioconjugate
  other: immunogenicity: increases
